# Laboratory results published in the supplement of paper PMC10567573.
# B1: FCHO1 (parent)
# chain: FSDPSQSDPETKDFWLNMAALTEA
# Variants of: B1
# Experiment: protein stability index of a GFP-peptide fusion (GPS, HEK-293T) (PSI 1-6); higher = more stable
# Conditions: c terminus: a fixed tail appended
# 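Further: lentivirally expressed fusions sorted by FACS into six bins by GFP to DsRed ratio, PSI derived from sequencing read proportions per bin multiplied by bin number.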
row,Variant,protein stability index
1,FSDPSQSDPETKDFWLNMARLTEA,2.81
2,FSDPSQSDPETKDFWLNMAHLTEA,2.82
3,FSDPSQSDPETKDFWLNMAWLTEA,2.16
4,FSDPSVSDPETKDFWLNMAALTEA,2.85
5,FSDPSPSDPETKDFWLNMAALTEA,3.16
6,FSDPSHSDPETKDFWLNMAALTEA,2.59
7,FSDPSRSDPETKDFWLNMAALTEA,2.44
8,FSDPSKSDPETKDFWLNMAALTEA,2.52
9,FSDPSQNDPETKDFWLNMAALTEA,2.86
10,FSDPSQSDPETKDFWLNMAALTEP,2.06
11,FSDPSQSDPETKDFWLNMAALTET,2.52
12,FSDPSQSDPETKDFWLNMAALTEY,2.29
13,FSDPSQSDPETKDFWLNMAALTEE,3.3
14,FHDPSQSDPETKDFWLNMAALTEA,1.99
15,FDDPSQSDPETKDFWLNMAALTEA,4.53
16,FSDPSQSDPETKDFWLNMAALTLA,2.3
17,FSDPSQSDPETKDFWLNMAALTMA,2.08
18,FSDPSQSDPETQDFWLNMAALTEA,3.43
19,FSDPSQSDPETADFWLNMAALTEA,3.25
20,FSDPSQSDPETIDFWLNMAALTEA,3.11
21,FSDPSQSDPETGDFWLNMAALTEA,3.23
22,FSDISQSDPETKDFWLNMAALTEA,3.33
23,FSDRSQSDPETKDFWLNMAALTEA,2.02
24,FSDYSQSDPETKDFWLNMAALTEA,1.85

row,Variant,protein stability index
1,FSDPVQSDPETKDFWLNMAALTEA,2.54
2,FSDPNQSDPETKDFWLNMAALTEA,2.79
3,FSDPQQSDPETKDFWLNMAALTEA,3.21
4,FSDPDQSDPETKDFWLNMAALTEA,3.93
5,FSDPCQSDPETKDFWLNMAALTEA,2.6
6,FSDPEQSDPETKDFWLNMAALTEA,4.46
7,FSDPSQSDPEAKDFWLNMAALTEA,3.11
8,FSDPSQSDPEIKDFWLNMAALTEA,2.7
9,FSDPSQSDPERKDFWLNMAALTEA,2.69
10,FSDPSQSDPELKDFWLNMAALTEA,2.13
11,FSDPSQSDPEWKDFWLNMAALTEA,1.74
12,FSDPSQSDPETKDFWSNMAALTEA,2.32
13,FSDPSQSDPETKDFWNNMAALTEA,3.48
14,FSDPSQSDPETKDFWQNMAALTEA,3.59
15,FSDPSQSDPETKDFWLGMAALTEA,2.67
16,FSDPSQSDPETKDFWLYMAALTEA,2.8
17,FSDPSQSDPETKDFWLLMAALTEA,2.43
18,FSDPSQSDPETKDFWLKMAALTEA,2.91
19,FSDPSQSDPETKDFWLFMAALTEA,1.82
20,FSDPSQSDPETKDFWLHMAALTEA,2.74
21,FSDPSQSDPETKDFWLSMAALTEA,2.49
22,FSDPSQSDPETKDFWLMMAALTEA,2.73
23,FSDPSQSDPETKDFVLNMAALTEA,4.77
24,FSDPSQSDPETKDFWLNMSALTEA,2.29

row,Variant,protein stability index
1,FSDPSQSDPETKDFWLNMQALTEA,3.02
2,FSDPSQSDPETKDFWLNMMALTEA,2.54
3,FSDPSQSDPETKDFWLNMWALTEA,2.09
4,FSDPSQSDPETKDFWLNMKALTEA,2.78
5,FSDPSQSDPETKDFWLNMEALTEA,2.74
6,FSDPSQSDPETKDFWLNMCALTEA,2.23
7,FSDPSQSDPETKDFWLNMAALIEA,2.86
8,FSDPSQSDPETKDFWLNMAALPEA,2.34
9,FSDPSQSDPNTKDFWLNMAALTEA,1.9
10,FSDPSQSDPGTKDFWLNMAALTEA,2.03
11,FSDPSQSDPWTKDFWLNMAALTEA,1.83
12,FSDPSQSDPETKDFWLNMAADTEA,3.27
13,FSDPSQSDPETKDFWLNMAATTEA,2.75
14,FSDPSQSDPETKDFWLNMAAKTEA,2.95
15,FSDPSQSDPETKDFWLNMAAPTEA,2.32
16,FSDPSQSDPETKDYWLNMAALTEA,3.98
17,FSDPSQSDPETKDNWLNMAALTEA,4.76
18,FSDPSQSDPETKDFWLNTAALTEA,2.62
19,FSDPSQSDPETKDFWLNIAALTEA,2.37
20,GSDPSQSDPETKDFWLNMAALTEA,4.86
21,RSDPSQSDPETKDFWLNMAALTEA,3.73
22,VSDPSQSDPETKDFWLNMAALTEA,4.86
23,YSDPSQSDPETKDFWLNMAALTEA,3.26
24,NSDPSQSDPETKDFWLNMAALTEA,4.52

row,Variant,protein stability index
1,KSDPSQSDPETKDFWLNMAALTEA,4.42
2,QSDPSQSDPETKDFWLNMAALTEA,4.72
3,MSDPSQSDPETKDFWLNMAALTEA,4.18
4,FSDPSQSDCETKDFWLNMAALTEA,2.68
5,FSDPSQSDFETKDFWLNMAALTEA,2.76
6,FSDPSQSDSETKDFWLNMAALTEA,2.6
7,FSDPSQSDMETKDFWLNMAALTEA,3.39
8,FSDPSQSDKETKDFWLNMAALTEA,3.05
9,FSDPSQSDEETKDFWLNMAALTEA,4.01
10,FSDPSQSPPETKDFWLNMAALTEA,2.93
11,FSDPSQSMPETKDFWLNMAALTEA,3.04
12,FSDPSQSWPETKDFWLNMAALTEA,1.86
13,FSDPSQSRPETKDFWLNMAALTEA,2.57
14,FSDPSQSNPETKDFWLNMAALTEA,1.95
15,FSDPSQSDPETKHFWLNMAALTEA,2.02
16,FSDPSQSDPETKIFWLNMAALTEA,1.75
17,FSDPSQSDPETKWFWLNMAALTEA,1.65
18,FSCPSQSDPETKDFWLNMAALTEA,2.23
19,FSYPSQSDPETKDFWLNMAALTEA,1.78
20,FSIPSQSDPETKDFWLNMAALTEA,1.71
21,FSWPSQSDPETKDFWLNMAALTEA,2.72
22,FSEPSQSDPETKDFWLNMAALTEA,2.73
